Source: US20110039331A1 (OSAKA UNIVERSITY, published 2011)
Blank lines part the entries; values can stand above or below the molecule they belong to.

Assays:
[1] = biological target: Flag-tagged Fn (Flag-Fn) (human) (UniProt P02751); assay: SPR (Biacore), Flag-Fn on the chip, M2 antibody flowed over
[2] = biological target: P20.1 antibody (monoclonal antibody produced by mouse-mouse hybridoma P20.1, FERM BP-11061); assay: competitive elution of the P4×3-tagged hGH fusion protein from P20.1 antibody-Sepharose, SDS gel
[3] = biological target: P20.1 antibody (monoclonal antibody produced by mouse-mouse hybridoma P20.1, FERM BP-11061); assay: competitive dissociation ELISA: free peptide added for 30 minutes to P20.1 antibody bound on coated P4(20)-Fn
[4] = biological target: P20.1 antibody (monoclonal antibody produced by mouse-mouse hybridoma P20.1, FERM BP-11061); assay: competitive dissociation ELISA: P20.1 antibody bound to coated P4(20)-Fn, free P4(C8) peptide added at the final washing step for 30 minutes; displaced partner P4(20)-Fn
[5] = biological target: T1, hGH-BAS-γC-P4×3, human growth factor/human fibrinogen γ chain C domain fusion protein with 3 repeats of the … (human, UniProt P01241 27-217; P02679 169-437); assay: SPR (Biacore X-100), P20.1 antibody-immobilized chip, fusion protein flowed over
T1 construct: also called P4×3-tagged hGH fusion protein

[6] = biological target: hGH-BAS-γC-P4×5, human growth factor/human fibrinogen γ chain C domain fusion protein with 5 repeats of the … (human, UniProt P01241 27-217; P02679 169-437); assay: as above
[7] = biological target: T2, tag peptide/F-spondin fusion protein (P4×3, TEV protease cleavage sequence, N-terminal 146-amino-acid domain …); assay: affinity purification from culture supernatant on P20.1 antibody-Sepharose, elution with 40% propylene glycol and 1 M NaCl, SDS gel electrophoresis
T2 construct: Secreted from HEK293T cells; also called recombinant F-spondin protein
T2 chain: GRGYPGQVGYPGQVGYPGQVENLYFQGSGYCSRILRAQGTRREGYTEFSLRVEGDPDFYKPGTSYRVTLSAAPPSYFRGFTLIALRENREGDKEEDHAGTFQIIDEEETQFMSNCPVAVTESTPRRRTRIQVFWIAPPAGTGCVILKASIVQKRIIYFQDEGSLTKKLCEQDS
Experimental: Washing with TBS and eluting with a buffer solution containing 40% propylene glycol and 1 M NaCl were performed, and the resulting effluent was subjected to SDS gel electrophoresis.

[8] = biological target: T3, P4(C8) peptide (8-residue peptide PRGYPGQV) (human); assay: X-ray crystallography of the complex
T3 peptide: PRGYPGQV

Sequence of Flag-tagged Fn (Flag-Fn) (human) (P02751 other isoform, or with tags, fused parts or gaps limits assumed): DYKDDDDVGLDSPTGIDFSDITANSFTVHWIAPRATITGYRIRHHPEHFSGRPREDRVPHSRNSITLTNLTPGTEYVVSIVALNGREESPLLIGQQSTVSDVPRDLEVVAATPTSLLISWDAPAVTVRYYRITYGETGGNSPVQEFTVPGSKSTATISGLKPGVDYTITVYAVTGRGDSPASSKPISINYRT

Kd [1]: 2.7 nM | koff [1]: 0.000395 s⁻¹ | kon [1]: 146000 M⁻¹ s⁻¹
Molecule: commercially available anti-Flag antibody M2

peptide concentration that elutes the tagged fusion protein [2]: > 0.1 mg/mL | peptide concentration at which almost complete dissociation was confirmed [3]: 0.1 mg/mL | IC50 (read off the curve) [4]: 10 µg/mL
Molecule: PRGYPGQV [P4(C8) peptide (8-residue peptide PRGYPGQV)]

fold of the maximum binding capacity against the fusion protein with one repeat [5]: ≥ 4 fold | fold of the maximum binding capacity against the fusion protein with one repeat [6]: ≥ 4 fold | binding result [7]: binds
B1: P20.1 antibody (monoclonal antibody produced by mouse-mouse hybridoma P20.1, FERM BP-11061) (antibody, mouse IgG1, V domains shown)
VH: QIQLVQSGPEVQKPGETVRISCKASGYTFTTAGMQWVQKMPGKSLKWIGWINTRSGVPKYAEDFKGRFAFSLETSASIAYLHINNLKNEDTATYFCAREGPGFVYWGQGTLVTVSA
VL: QTVVTQESALTTSPGETVTLTCRSSTGVVTTSNYANWVQEKPDHLFTGLIVGTNNRVPGVPPRFSGSLIGDKAALTITGAQTEDEAIYFCALWYSNHWVFGGGTKLTVL
notes: Biotinylated in the sandwich ELISA of 7-2-1 and coupled to CNBr-Sepharose in the pull-down and purification experiments; also called P20.1 Ab; monoclonal P20.1 antibody

binding result [8]: binds
B2: Fab fragment of the P20.1 antibody (Fab, V domains shown)
VH: B1 VH
VL: B1 VL
notes: Made by papain digestion of the purified IgG1/lambda antibody; also called P20.1 antibody Fab fragment
